Laboratory results from patent US20190309044A1, “POLYPEPTIDES AND USES THEREOF AS A DRUG FOR TREATMENT OF AUTOIMMUNE DISORDERS” (Compugen Ltd., priority 2017, published 2019).

Key:
SJL/J mice = test: PLP139-151/CFA R-EAE upon IL-10 or TGFb blockade, clinical score; type: in vivo, mouse
Experimental: SJL/J mice were purchased from Harlan and primed with PLP139-151/CFA per the standard protocol, as described in 21.1.2 Methods, above). At disease remission the mice were split into 6 different treatment groups (n=5) as follows:
Mice were treated with Control Ig (mouse IgG2a) or C1ORF32 ECD-Fc (SEQ ID NO:42) at 100 ug/dose, each via an i.p. injection. This was followed with a second i.p. injection on the same day of either anti-IL-10 (rat IgG1), rat IgG1 (control Ab), or anti-TGFβ (mouse IgG1) at 100 ug/dose, each. All treatments were given 3×/wk for 2 wks, beginning on day +20 (onset of disease remission) and until day +31 post disease induction. All mice were followed for disease scores until day 44 post disease induction. On day 44, mice were sacrificed and analyzed for total T cell and Treg cell numbers in spleen and CNS. […]
Mice were followed for disease and scored on a 0-5 scale per standard lab protocol as follows: 0, no abnormality; 1, limp tail; 2, limp tail and hind limb weakness; 3, hind limb paralysis; 4, hind limb paralysis and forelimb weakness; and 5, moribund. Dead mice were scored with a score of 5 on the day of death only, and were not further scored on the next days.

NOD mice = test: Type 1 diabetes incidence in NOD mice; type: in vivo, mouse; details: Study III; p<0.001
Experimental: The effect of C1ORF32 ECD-Fc treatment on modulation of disease incidence was tested in NOD mice, which spontaneously develop a T1D disease. In NOD mice, autoreactive CD4+ can be observed within the β-islets as early as 2 weeks of age (Yang et al., Immunity. 1996 February; 4(2):189-94), and by 10 weeks of age, when the treatment with C1ORF32 ECD-Fc (SEQ ID NO: 42) began in the present experiments, NOD mice develop peri-insulitis and β-cell loss (Jimeno et al., Immunology and Cell Biology. (2010) 88, 734-745).
Materials: C1ORF ECD-Fc (SEQ ID NO:42) was used in these studies, as described below. Control Ig was mouse IgG2a from BioXcell (Cat# BE0085). NOD mice were purchased from Jackson labs, and blood glucose was measured via sampling a small drop of blood from the tail vein.
Methods: Six week old NOD mice were purchased from Jackson labs. […] Blood glucose levels were monitored weekly from 8 weeks of age until the mice reached […] of age as detailed below. Mice were considered diabetic upon having two consecutive blood glucose readings of >250 mg/dL. Diabetic mice were sacrificed on the day of the second high glucose level reading. Blood glucose levels were obtained from the tail vein, and the level of blood glucose measured via use of a OneTouch. […]

B1: C1ORF32 ECD-Fc (SEQ ID NO:42): human-mouse fusion protein: human C1ORF32 ECD fused to mouse immunoglobulin Fc (SEQ ID NO:42) (protein)
chain: LQVTVPDKKKVAMLFQPTVLRCHFSTSSHQPAVVQWKFKSYCQDRMGESLGMSSTRAQSLSKRNLEWDPYLDCLDSRRTVRVVASKQGSTVTLGDFYRGREITIVHDADLQIGKLMWGDSGLYYCIITTPDDLEGKNEDSVELLVLGRTGLLADLLPSFAVEIMGSENLYFQGSGEPRGPTIKPCPPCKCPAPNLLGGPSVFIFPPKIKDVLMISLSPIVTCVVVDVSEDDPDVQISWFVNNVEVHTAQTQTHREDYNSTLRVVSALPIQHQDWMSGKEFKCKVNNKDLPAPIERTISKPKGSVRAPQVYVLPPPEEEMTKKQVTLTCMVTDFMPEDIYVEWTNNGKTELNYKNTEPVLDSDGSYFMYSKLRVEKKNWVERNSYSCSVVHEGLHNHHTTKSFSRTPGK
modifications: Fusion protein human C1ORF32-ECD fused to mouse IgG2a Fc
beneficial effect on disease (SJL/J mice; concomitant administration of anti-IL-10): abrogated the beneficial effect
beneficial effect on disease (SJL/J mice; concomitant administration of anti-TGF): abrogated the beneficial effect
incidence of T1D in comparison to Control Ig and PBS (NOD mice): significantly decreased incidence of T1D
